Measurements taken from the nanobody polyreactivity screen of Harvey et al. (2022).

assay: yeast display, Sf9 membrane polyspecificity reagent, FACS + sequencing; frameworks hold sequencing errors
Method in brief: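 In a synthetic yeast display library (Saccharomyces cerevisiae BJ5465), nanobody expression was induced with galactose for 36–48 hours. FACS gates were set low and high (top ~1%) using anti-HA fluorescence for expression and streptavidin fluorescence for binding of the Sf9 membrane reagent. Each polyreactivity label is drawn from the gate of origin.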

Row | Sequence | polyreactivity (PSR sort gate)
1 | QVQLVESGGGLVQAGGSLRLSCAASGITFYVYALGWYRQAPGKARALVAANNYDSGSTYYADSEKGRFTISRDNAKNTVYIQKNSLKPEDTAGYYCATDGVNPFYAYDYWGQGTQVTVSS | low polyreactivity
2 | QVQLVESGGGLVQAGGSLRLSCAASGITFYVYTMGWDRQAPGKERELVAAITWSGGSTYYADSVKGRFTISRDNAKNTVYLQMKSLKPEDTAVYYCNRVGYWVGLDSWGQGTQVTVSS | high polyreactivity
3 | QVQLVESGGGLVQAGGSLRLSCAASGITFYWYAMGWYRQAPGKERELVAAITRSVGSTYYADSVKGRFSISRDNAKNPVYLQMNSLKPEDTAVYYCAADFYYYGFDYWGQGTQVTVSS | low polyreactivity
4 | QVQLVESGGGLVQAGGSLRLSCAASGITFYYNAMGWYRQAPGKERELVAAIRSAGSTYYADSVKGRFTISRDNAKNSVYVQMNSLKPEDTAVDYWGQGTQVTVSS | low polyreactivity
5 | QVQLVESGGGLVQAGGSLRLSCAASGITFYYNAMGWYRQAPGKERELVADISARGGSTYYADSVKGRFTISRDNAKNTVYLQMNCLIPEDTAVYYCNTYPKKKRPNEYDYWGQGTQVSVSS | high polyreactivity
6 | QVQLVESGGGLVQAGGSLRLSCAASGITFYYYAKGWYRQAPGKERELVSAISFRGGSTYYADSVKGRFTISRDNAKNSVYLQMNSLKPEDTAVYYCAAETSRSWYTWVSYDYWGQGTQVNVSS | high polyreactivity
7 | QVQLVESGGGLVQAGGSLRLSCAASGITFYYYAMGWYRQAPGKERELVASISQSGGSTYYAASVKGRFSISRDNAKNTVYLQMNSLKPEDTAVYYCAADPGRYYPMYYWGQGTQVTVSS | low polyreactivity
8 | QVQLVESGGGLVQAGGSLRLSCAASGITFYYYVMGWYRQAHGKERELVAAISNRGGSTYYADSVKGRFTISRDNAKNTVYLQMNSLKPDDTAVYYCAAYPLSGYDYWGQGTQVTVSS | high polyreactivity
9 | QVQLVESGGGLVQAGGSLRLSCAASGITIARYAMGWYRQAPGKERELVAAITRSGGRTYYADSVKGRFTISRDNAKITVYLQMKSLKPEDTAVYYCYNVTRGKNHGTKYDYWGQGTQVTVSS | high polyreactivity
10 | QVQLVESGGGLVQAGGSLRLSCAASGITIKYYTMGWYRQAPGKERELVAAISRSGGSTYYADSVKGRFTISRDNAKNTVYLQMNSLIPEDTAVYYCAAERGAYRGVTFTYGYWGQGTQVTVSS | high polyreactivity
11 | QVQLVESGGGLVQAGGSLRLSCAASGITILRYAMGWYRQAPGKERELVARITRSGGSTYYADSVKGRFTISRDNAKNTVYLQMNSLKPEDTAVYYCNDVRSAGDGDYWGQGTQVTVSS | high polyreactivity
12 | QVQLVESGGGLVQAGGSLRLSCAASGITINFYAMGWYRQAPGKERELVAAITQSGGSTYYADSVKGRFTISRDNAKNTVYLQMNRLKPEDTAVYYCAAARTGHMYYWGQGTQVTVSS | high polyreactivity
13 | QVQLVESGGGLVQAGGSLRLSCAASGITINYYAMGWYRQAPGKERELVATIRSGGGTYYADSVKGRFTISRDNAKNTVYLQMNSLKTEDTAVYYCASYTYPYYRYDYWGQGTQVTVSS | high polyreactivity
14 | QVQLVESGGGLVQAGGSLRLSCAASGITIRLYAKGWYRQAPGKERELVAGISSGGSTYYADSVKGRFTISRDNAKNTFYLQMNSLKPEDTAVYYCAAVSYGRRRPQHFEYWGQGTQVTVSS | high polyreactivity
15 | QVQLVESGGGLVQAGGSLRLSCAASGITIRRYAMGWYRQAPGKERELVAAISTSGGGTYYADSVKGRFTISRDNAKNTVYLQMNSLKPEDTAVYYCAARYLGYLLSGYPPYDYWGQGSQVTVSS | high polyreactivity
16 | QVQLVESGGGLVQAGGSLRLSCAASGITIYDNDMGWYRQAPWKERELVAGITRTTVGTYYADSVKGRFTISRDNAKNTVYLQMNSLKPEDTAVYYCAATSLAGYYQFDYWGQGTQVTVSS | low polyreactivity
17 | QVQLVESGGGLVQAGGSLRLSCAASGITLAGYVMGWYRQAPGKERELVADISSSGDSTYYADSVKGRFTISRDNAKNTVYLQMNSLKPEDTAVYYCADEEIIPLIYKGYPFDYWGQGTQVTVSS | low polyreactivity
18 | QVQLVESGGGLVQAGGSLRLSCAASGITLATNAMGLYRQAPGKERELVAAINSGGITKYADSVKGRFTISRDNEKNTVYLQMNSLKPEDTAVYYCAADLEPRTNAPGLPTPDGYYWGQGTQVTVSS | low polyreactivity
19 | QVQLVESGGGLVQAGGSLRLSCAASGITLDDYAMGWDRQARGKERELVAAISWSGGSTYYADSVKGRFTISRDNAKNTDYLQMNSLKPADTAVYYCAADPPFRYDYWGQGTQVTVSS | low polyreactivity
20 | QVQLVESGGGLVQAGGSLRLSCAASGITLDVNAMGWYRQAPGKERELVADITWSDDTTYYADSVKGRFTISRDNAKNTVYLQMNSLKPEDTAVYYCAADVSVSFHPRGYDYWGQGTQVTVSS | low polyreactivity
21 | QVQLVESGGGLVQAGGSLRLSCAASGITLHYYAMGWYRQAPGKEREFVAAISWTGGSTYYADSVKGRFTISRDTAKNTVYLQMNSLKPEDTAVYYCAAEGGAFRTYYYWGQGTQVTVSS | high polyreactivity
22 | QVQLVESGGGLVQAGGSLRLSCAASGITLIRYAMGWYRQAPGKERELVAAINSSGGNTYYADSVKGRFTISRDNAKNTVYLQMNSLKPEDTAVYYCAAKYILDIIGSLDYWGQGTQVTVSS | low polyreactivity

Row | Sequence | polyreactivity (PSR sort gate)
23 | QVQLVESGGGLVQAGGSLRLSCAASGITLKPNAMGWYRQAPGKERELVAAIDSGGSTNYADSVKGRFTISRDNAKNTVYLQMNSLKPEDTAVYYCAAPYQDRDLQVSYSTYEGGYWGQGTQVTVSS | low polyreactivity
24 | QVQLVESGGGLVQAGGSLRLSCAASGITLLGNAMGWYRQAPGTERELVAAISRRGGSTYYADSVKGRFTISRDNAKNTVYLQMNSLKPEDTAVYYCAADRYTVVYYRIFDYWGQGTQVTVSS | high polyreactivity
25 | QVQLVESGGGLVQAGGSLRLSCAASGITLLYNAMGWSRQAPGKERELVAGITGRGGSTYYADSVKGRFTISRDNAKNTVYLQMNSLKPEDTAVYYCAATTDYRYVGRIVIRDEHWGQGTQVTVSS | low polyreactivity
26 | QVQLVESGGGLVQAGGSLRLSCAASGITLLYNAMGWYRQAPGKERELVAGITGRGGSTYYADSVKGRFTISRDNAKNTVYLQMNSLKPEDNAVYYCAATTDYRYVGRIVIRDDHWGHGTQVTVSS | low polyreactivity
27 | QVQLVESGGGLVQAGGSLRLSCAASGITLPVYGKGWYRQAPGKERELVAVIDIVGITNYADSVKGRFTISRDNAKNTVYLQMNSLKPEDTAVYYCAKRYVYIADGGEYYYWGQGTQVTVSS | low polyreactivity
28 | QVQLVESGGGLVQAGGSLRLSCAASGITLQNNAMGWYRQAPGKERELVAAITGSGGSTYYADSVKGRFTISRDNAKNTVYLQMNSLKPEDTAVYYCATDGIFHLGVYTPYDYWGQGTQVTVSS | low polyreactivity
29 | QVQLVESGGGLVQAGGSLRLSCAASGITLQYYAMGWYRQAPGKERQLVAGITSGGGTYYADSVKGRFTISRDNAKNTVYLQMNSLKPEDTAVYYCAARPWRSRYYGGLGRRFDYWGQGTQETVSS | high polyreactivity
30 | QVQLVESGGGLVQAGGSLRLSCAASGITLSSNAMGWYRQAPGKERELVAAITWRTDRTYYADSVKGRFTISRDNAKNTVYLQMNSLKPEDTAVDYCAARTTVSSARYDYWGQGTQVTVSS | high polyreactivity
31 | QVQLVESGGGLVQAGGSLRLSCAASGITLTPYAMGWYRQAPGKERELVAAISWSGGSTYYADSVKGRFTISRDNAKNTVYLQMNSLKPEDTAVYYCAAGPGQYTVYAGTIGEYDYWGQGTQVTVSS | high polyreactivity
32 | QVQLVESGGGLVQAGGSLRLSCAASGITLVRYAMGWNRKAPGKEREFVASITSGASTNYADSVKGRFTISRYNAKNTVYLQMNSLKPDDTAVYYCAAGPPSGGWWGGWYEYWGQGTQVTVSS | high polyreactivity
33 | QVQLVESGGGLVQAGGSLRLSCAASGITLWQYAMGWYRQAPGKERELVAGITDTGDSTYYADSVKGRFTISRDNAKNTVYLQMNSLKPEDTAVYYCAVPRSALLRAPYELYSWGQGTQVTVSS | low polyreactivity
34 | QVQLVESGGGLVQAGGSLRLSCAASGITLYGYVMGWYRQAPGKERELVAAISASGGRTHYADSVKGRFTISRDNAKNTVYLQMNSLKPEDTAVYYCARAGSRSPGGYDYWGQGTQVTVSS | high polyreactivity
35 | QVQLVESGGGLVQAGGSLRLSCAASGITLYNYAMGWYRQAPGKERELVAAISLSGGRTYYADSVKGRFTISRDNAKNTVYLQMNSLKPEDTAVYYCAADWLNSDPYNYWGQGTQVTVSS | low polyreactivity
36 | QVQLVESGGGLVQAGGSLRLSCAASGITLYNYAMGWYRQAPGKERELVAAISLSGGRTYYADSVKGRFTISRDNAKNTVYLQMNSLKPEDTAVYYCAAETDFVWSAPQLAYKVYYWGQGTQVTVSS | low polyreactivity
37 | QVQLVESGGGLVQAGGSLRLSCAASGITLYRYVMGWYRQAPGKERELVAAISGRGTSTYYADSVKGRFPISRDNAKNTVYLQMNSLKPEDTAVYYCNAEYTKTGALVIPYTYYYAEDYWGQGTQVTVSS | low polyreactivity
38 | QVQLVESGGGLVQAGGSLRLSCAASGITNTHYAMGWYRQAPGKERELVAAITSSGRTYYADSVKGRFTISRDNAKNTVYLQMNSLKPEDTAVYYCAAEHSWYYGLLGYWGQGTQVTVSS | high polyreactivity
39 | QVQLVESGGGLVQAGGSLRLSCAASGITSARYAMGWYRQAPGKERELVAAITLSGVRTYYADSVKGRFTISRDQAKNTVYLQMNSLKPEDTAVYYCNTVYYSKWGQGTQVTVSS | low polyreactivity
40 | QVQLVESGGGLVQAGGSLRLSCAASGITSDQNAMGWYRQAPGKERELVAAITRGGTTYYADSVKGRFTISRDNAKNTVYLQMNSLKPEDTAVYYCNARYYFRKQVRPFHIRYDYWGQGTQVTVSS | low polyreactivity
41 | QVQLVESGGGLVQAGGSLRLSCAASGITSEYNTMGWYRQAPGKERELVAGISYRGGSTYYADSVKGRFTISRDNAKNTVYLQMNSLKPEDTAVYYCAKSFKRWRYGNPDYYWGQGTQVTVSS | high polyreactivity
42 | QVQLVESGGGLVQAGGSLRLSCAASGITSGTYAMGWYRQAPGKERELVAGISRSVTRTYYADSVKGRFTISRDNAKNTVYLQMNSLKPEDTAVYYCNTYVVRRPGYGYWGQGTQVTVSS | high polyreactivity
43 | QVQLVESGGGLVQAGGSLRLSCAASGITSKQYAMVWYRQAPGKERELVAAISGSGTRTYYADSVKGRFTISRDNAKNTVNLQMNSLKPEDTAVYYCAAYGYSRCHDDWGQVTQVTVSS | high polyreactivity
